No end group written: not given here.
What was measured:
PSA = PSA (Homo sapiens, UniProt P07288); conditions: cited from earlier work; for Kcat / Km: aminomethyl coumarin labeled peptides, 50 mM Tris, 0.1 M NaCl, pH 7.8
[1] = tested on: E14 mouse T-cell lymphoma cells (ATCC TIB-39); assay: In vitro toxicity, MTS/PMS cell viability assay; type: cell-based; conditions: 4 hours at 37° C., 1×10^−13 M-1×10^−7M toxin, FIG. 3; read-out: LC50 (the source's name)
Method: To determine in vitro toxicity, a cell viability assay was performed as follows. E14 mouse T-cell lymphoma cells (ATCC TIB-39) were cultured at 10^+5 cells per well in MTS/PMS Cell Titer 96 (Promega). […] Cell viability was subsequently determined by reading the plate on a plate reader, as directed by the manufacturer of the MTS/PMS kit.

mice = assay: In vivo toxicity after single intravenous injection
Method: To determine in vivo toxicity, proaerolysin variants were administered to mice intravenously.

[2] = tested on: human LNCaP prostate cancer xenografts which produce PSA; assay: Intratumoral injection into PSA-producing LNCaP xenografts; type: in vivo; conditions: nude mice
Method: The percent of tumor within sample was determined by calculating the ratio of viable tumor to total tumor area following image analysis of thin tumor sections.

Sequence of PSA (P07288 25-261): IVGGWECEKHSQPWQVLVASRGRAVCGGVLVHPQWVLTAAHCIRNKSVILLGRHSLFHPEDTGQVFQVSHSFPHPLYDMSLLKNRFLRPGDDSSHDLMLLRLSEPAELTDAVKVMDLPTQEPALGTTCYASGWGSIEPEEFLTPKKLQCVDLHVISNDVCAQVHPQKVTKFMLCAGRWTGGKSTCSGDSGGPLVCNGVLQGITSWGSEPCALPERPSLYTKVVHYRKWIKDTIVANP

Substance	Kcat (PSA) [s⁻¹]	Km (PSA) [µM]	efficiency and specificity of hydrolysis by PSA (PSA)	CC50 [1] [nM]	lethality after dose of 1 μg (mice; intravenous, 1 μg)	LD100 at 24 hours (dose that kills 100% of animals within 24 hours) (mice; single IV injection, total dose) [µg]	antitumor effect against LNCaP xenografts [2]
ATKSKQH (also: fluorescently labeled (aminomethyl coumarin); listed as Homo sapiens) [ATKSKQH (17), PSA substrate peptide]	0.0091	1310	not efficient, but were specifically hydrolyzed by PSA				
EHSSKLQ (also: fluorescently labeled (aminomethyl coumarin); listed as Homo sapiens) [EHSSKLQ (20), PSA substrate peptide]	0.012	1160					
HSSKLQ (listed as Homo Sapiens) [HSSKLQ (5), PSA substrate peptide]	0.011	470					
KGISSQY (also: fluorescently labeled (aminomethyl coumarin); listed as Homo sapiens) [KGISSQY (15), PSA substrate peptide]	0.043	160	efficiently but not specifically hydrolyzed by PSA				
KGLSSQC (also: fluorescently labeled (aminomethyl coumarin); listed as Homo sapiens) [KGLSSQC (18), PSA substrate peptide]	0.0017	300					
LGGSSQL (also: fluorescently labeled (aminomethyl coumarin); listed as Homo sapiens) [LGGSSQL (19), PSA substrate peptide]	0.0037	900	not efficient, but were specifically hydrolyzed by PSA				
SKLQ (also: fluorescently labeled (aminomethyl coumarin); listed as Homo sapiens) [SKLQ (21), PSA substrate peptide]	0.020	813					
SRKSQQY (also: fluorescently labeled (aminomethyl coumarin); listed as Homo sapiens) [SRKSQQY (16), PSA substrate peptide]	0.023	90	efficiently but not specifically hydrolyzed by PSA				
Wild-type proaerolysin				0.15	caused death within one hour	0.1	minimal effect

Reference: patent US7838266B2, “Proaerolysin containing protease activation sequences and methods of use for treatment of prostate cancer” (University of Victoria Innovation and Development …, priority 2001, dated 2010)
